According to patent publication US7105647 (WISCONSIN ALUMNI RESEARCH FOUNDATION, dated 2006):

B1: human aryl hydrocarbon receptor (AHR), full length (receptor, UniProt P35869 1-848, looked up)
chain: MNSSSANITYASRKRRKPVQKTVKPIPAEGIKSNPSKRHRDRLNTELDRLASLLPFPQDVINKLDKLSVLRLSVSYLRAKSFFDVALKSSPTERNGGQDNCRAANFREGLNLQEGEFLLQALNGFVLVVTTDALVFYASSTIQDYLGFQQSDVIHQSVYELIHTEDRAEFQRQLHWALNPSQCTESGQGIEEATGLPQTVVCYNPDQIPPENSPLMERCFICRLRCLLDNSSGFLAMNFQGKLKYLHGQKKKGKDGSILPPQLALFAIATPLQPPSILEIRTKNFIFRTKHKLDFTPIGCDAKGRIVLGYTEAELCTRGSGYQFIHAADMLYCAESHIRMIKTGESGMIVFRLLTKNNRWTWVQSNARLLYKNGRPDYIIVTQRPLTDEEGTEHLRKRNTKLPFMFTTGEAVLYEATNPFPAIMDPLPLRTKNGTSGKDSATTSTLSKDSLNPSSLLAAMMQQDESIYLYPASSTSSTAPFENNFFNESMNECRNWQDNTAPMGNDTILKHEQIDQPQDVNSFAGGHPGLFQDSKNSDLYSIMKNLGIDFEDIRHMQNEKFFRNDFSGEVDFRDIDLTDEILTYVQDSLSKSPFIPSDYQQQQSLALNSSCMVQEHLHLEQQQQHHQKQVVVEPQQQLCQKMKHMQVNGMFENWNSNQFVPFNCPQQDPQQYNVFTDLHGISQEFPYKSEMDSMPYTQNFISCNQPVLPQHSKCTELDYPMGSFEPSPYPTTSSLEDFVTCLQLPENQKHGLNPQSAIITPQTCYAGAVSMYQCQPEPQHTHVGQMQYNPVLPGQQAFLNKFQNGVLNETYPAELNNINNTQTTTHLQPLHHPSEARPFPDLTSSGFL
notes: Full length in yeast (PRSAHR) and in the Hsp90 co-IP (huAHR); also called huAHR; Ah receptor

Assays:
[1] = target: T1, Hsp90; experiment: co-IP of 35S-labelled in vitro translated protein with anti-Hsp90 antibody 3G3p90, phosphoimager
T1 construct: Endogenous Hsp90 of the translation lysate
Protocol: Coimmunoprecipitation with Hsp90. Each MOP construct was in vitro translated in the presence of [^35S]-methionine in a TNT coupled transcription/translation system (Promega). Hsp90 immunoprecipitation assays were performed with monoclonal antibody 3G3p90 or a control IgM antibody, TEPC 183 (Sigma) essentially as described. Each immunoprecipitation was subjected to SDS-PAGE, and the resulting gel was dried. The level of radioactivity in each coprecipitated protein band was quantified on a Bio-Rad GS-363 Molecular Imager System. The amount of protein immunoprecipitated with the Hsp90 antibody is presented as a percentage of the amount of murine AHR immunoprecipitated in parallel assays.
4. Interaction of MOPs with Hsp90. In an effort to assess a MOP's ability to interact with Hsp90, we performed coimmunoprecipitation assays with anti Hsp90 antibodies. Given the remarkable stability of the Hsp90 complex with the AHR from the C57BL/6J mouse, we used this receptor species as a reference and compared all interactions relative to it. As additional controls, we immunoprecipitated ARNT and the human AHR as negative and positive controls, respectively. Despite our ability to readily detect huAHR-Hsp90 interactions, we were unable to detect ARNT, MOP2 or MOP5 interactions with Hsp90. In contrast, huAHR, MOP1, MOP3 and MOP4 all immunoprecipitated with HSP90-specific antisera. […]

[2] = target: B1; experiment: co-IP of 35S-labelled in vitro translated protein with AHR-specific antiserum
Protocol: (§1) 1. Interaction of MOPs with the AHR and ARNT in vitro; Coimmunoprecipitation experiments. We first performed coimmunoprecipitation experiments to determine if MOPs 1–4 had the capacity to interact with either the AHR or ARNT in vitro. These proteins were expressed in a reticulocyte lysate system in the presence of ^35S-methionine and then incubated in the presence or absence of the AHR or ARNT. Complex formation was assayed by coimmunoprecipitation with AHR or ARNT specific antisera, followed by quantitation of coimmunoprecipitated ^35S-labeled MOP by phosphoimage analysis. Interactions were identified by a reproducible increase in an AHR or ARNT-dependent precipitation of MOP protein. Because we have observed considerable variability in this coimmunoprecipitation assay, each experiment was performed at least three times.

[3] = target: T2, AH receptor nuclear translocator (ARNT), full length (human, UniProt P27540 1-789); experiment: co-IP of 35S-labelled in vitro translated protein with ARNT-specific antiserum
T2 construct: Full length: in vitro translated, expressed in yeast (PL574) or transfected; Endogenous ARNT in the Hep3B experiment; also called huARNT; hARNT
T2 sequence (P27540 whole entry): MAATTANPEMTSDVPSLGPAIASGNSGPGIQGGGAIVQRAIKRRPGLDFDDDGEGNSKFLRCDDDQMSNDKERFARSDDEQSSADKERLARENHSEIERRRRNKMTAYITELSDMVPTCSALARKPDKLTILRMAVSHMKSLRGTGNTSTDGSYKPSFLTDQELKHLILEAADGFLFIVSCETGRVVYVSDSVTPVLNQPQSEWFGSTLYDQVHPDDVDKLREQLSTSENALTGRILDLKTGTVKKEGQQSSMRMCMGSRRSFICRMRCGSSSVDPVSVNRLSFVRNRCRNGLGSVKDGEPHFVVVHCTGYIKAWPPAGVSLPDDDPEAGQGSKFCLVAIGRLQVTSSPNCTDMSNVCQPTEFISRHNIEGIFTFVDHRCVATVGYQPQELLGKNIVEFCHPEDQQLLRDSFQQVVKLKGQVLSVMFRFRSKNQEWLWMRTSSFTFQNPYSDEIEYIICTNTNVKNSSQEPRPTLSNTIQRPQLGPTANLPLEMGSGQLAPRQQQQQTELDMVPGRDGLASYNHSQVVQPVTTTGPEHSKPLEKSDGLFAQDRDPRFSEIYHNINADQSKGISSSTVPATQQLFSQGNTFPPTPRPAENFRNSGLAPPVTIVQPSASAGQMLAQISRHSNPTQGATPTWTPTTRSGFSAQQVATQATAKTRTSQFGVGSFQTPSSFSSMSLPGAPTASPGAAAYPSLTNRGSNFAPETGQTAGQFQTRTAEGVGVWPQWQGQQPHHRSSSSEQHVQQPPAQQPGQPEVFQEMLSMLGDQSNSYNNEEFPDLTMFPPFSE
Protocol: as §1

[4] = target: T2, AH receptor nuclear translocator …; experiment: functional data, assay not described
[5] = target: T2, AH receptor nuclear translocator …; experiment: yeast interaction trap (mating), X-Gal overlay
Protocol: Interaction Screen Against Known bHLH-PAS Proteins. LexAbHLH-PAS fusion proteins ("baits") of HIF1α, HIF2α, MOP3, MOP4, AHR, ARNT, and CLOCK were transformed into the L40 strain of yeast. The full-length ("fish") MOP3 and ARNT plasmids were transformed into the AMR70 yeast strain, and these transformants were plated onto yeast complete media plates (Kaiser et al., 1994, in *Methods in Yeast Genetics*, Cold Spring Harbor Press, Plainview, N.Y.). The L40 yeast harboring the bait constructs were replica plated onto these yeast complete media plates and mated for 8 hr at 30° C. The plates were then replica plated onto selective media and grown for an additional day at 30° C. 5-Bromo-4-chloro-3-indolyl […]-galactoside (X-Gal) overlay assays were performed to determine the relative expression of the lacZ reporter gene (Bohen and Yamamoto, 1993, PNAS 90: 11424–11428). Western blot analysis, using LexA-specific sera, was performed on extract from each transformant to confirm expression of the fusion protein (see Example 1).

B1
percent of the amount of murine AHR immunoprecipitated with the Hsp90 antibody [1]: 53%

B2: MOP4 (other)
chain: MDEDEKDRAKRASRNKSEKKRRDQFNVLIKELSSMLPGNTRKMDKTTVLEEVIGFLQKHNEVSAQTEICDIQQDWKPSFLSNEEFTQLMLEALDGFIIAVTTDGSIIYVSDSITPLLGHLPSDVMDQNLLNFLPEQEHSEVYKILSSHMLVTDSPSPEYLKSDGDLEFYCHLLRGSLNPKEFPTYEYIKFVGNFRSYNNVPSPSCNGFDNTLSRPCRVPLGKEVCFIATVRLATPQFLKEMCIVDEPLEEFTSRHSLEWKFLFLDHRAPPIIGYLPFEVLGTSGYDYYHIDDLELLARCHQHLMQFGKGKSCCYRFLTKGQQWIWLQTHYYITYHQWNSKPEFIVCTHSVVSYADVRVERRQELALEDPPSEALHSSALKDKGSSLEPRQHFNALDVGASGLNTSHSPSASSRSSHKSSHTAMSEPTSTPTKLMAEASTPALPRSATLPQELPVPGLSQAATMPAPLPSPSSCDLTQQLLPQTVLQSTPAPMAQFSAQFSMFQTIKDQLEQRTRILQANIRWQQEELHKIQEQLCLVQDSNVQMFLQQPAVSLSFSSTQRPEAQQQLQQRSAAVTQPQLGAGPQLPGQISSAQVTSQHLLRESSVISTQGPKPMRSSQLMQSSGRS
notes: also called huMOP4
binding result [2]: no binding
binding result [3]: no binding
percent of the amount of murine AHR immunoprecipitated with the Hsp90 antibody [1]: 31%

B3: MOP6 (other)
chain: MAPTKPSFQQDPSRRERLQALRKEKSRDAARSRRGKENFEFYELAKLLPLPAAITSQLDKASIIRLTISYLKMRDFANQGDPPWNLRMEGPPPNTSVKGAQRRRSPSALAIEVFEAHLGSHILQSLDGFVFALNQEGKFLYISETVSIYLGLSQVELTGSSVFDYVHPGDHVEMAEQLGMKLPPGRGLLSQGTAEDGASSASSSSQSETPEPVESTSPSLLTTDNTLERSFFIRMKSTLTKRGVHIKSSGYKVIHITGRLRLRVSLSHGRTVPSQIMGLVVVAHALPPPTINEVRIDCHMFVTRVNMDLNIIYCENRISDYMDLTPVDIVGKRCYHFIHAEDVEGIRHSHLDLLNKGQCVTKYYRWMQKNGGYIWIQSSATIAINAKNANEKNIIWVNYLLSNPEYKDTPMDIAQLPHLPEKTSESSETSDSESDSKDTSGITEDNENSKSDEKGNQSENSEDPEPDRKKSGNACDNDMNCNDDGHSSSNPDSRDSDDSFEHSDFENPKAGEDGFGALGAMQIKVERYVESESDLRLQNCESLTSDSAKDSDSAGEAGAQASSKHQKRKKRRKRQKGGSASRRRLSSASSPGGLDAGLVEPPRLLSSPNSASVLKIKTEISEPINFDNDSSIWNYPPNREISRNESPYSMTKPPSSEHFPSPQGGGGGGGGGGGLHVAIPDSVLTPPGADG
notes: Mentioned only in the general description
binding result [4]: binds

B4: LexAbHLH-PAS fusion of CLOCK (PL828) (other, UniProt P0A7C2 1-202, looked up)
chain: MKALTARQQEVFDLIRDHISQTGMPPTRAEIAQRLGFRSPNAAEEHLKALARKGVIEIVSGASRGIRLLQEEEEGLPLVGRVAAGEPLLAQQHIEGHYQVDPSLFKPNADFLLRVSGMSMKDIGIMDGDLLAVHKTQDVRNGQVVVARIDDEVTVKRLKKQGNKVELLPENSEFKPIVVDLRQQSFTIEGLAVGVIRNGDWLMLFTVSCSKMSSIVDRDDSSIFDGLVEEDDKDKAKRVSRNKSEKKRRDQFNVLIKELGSMLPGNARKMDKSTVLQKSIDFLRKHKEITAQSDASEIRQDWKPTFLSNEEFTQLMLEALDGFFLAIMTDGSIIYVSESVTSLLEHLPSDLVDQSIFNFIPEGEHSEVYKILSTHLLESDSLTPEYLKSKNQLEFCCHMLRGTIDPKEPSTYEYVKFIGNFKSLNSVSSSAHNGFEGTIQRTHRPSYEDRVCFVATVRLATPQFIKEMCTVEEPNEEFTSRHSLEWKFLFLDHRAPPIIGYLPFEVLGTSGYDYYHVDDLENLAKCHEHLMQYGKGKSCYYRFLTKGQQWIWLQTHYYITYHQWNSRPEFIVCTHTVVSYAEVRAERRRELG
notes: range 1-202;domain: bHLH-PAS domains; also called LexA fusion of CLOCK
binding result [5]: no binding

B5: LexA control (other, UniProt P0A7C2 1-202, looked up)
chain: MKALTARQQEVFDLIRDHISQTGMPPTRAEIAQRLGFRSPNAAEEHLKALARKGVIEIVSGASRGIRLLQEEEEGLPLVGRVAAGEPLLAQQHIEGHYQVDPSLFKPNADFLLRVSGMSMKDIGIMDGDLLAVHKTQDVRNGQVVVARIDDEVTVKRLKKQGNKVELLPENSEFKPIVVDLRQQSFTIEGLAVGVIRNGDWL
binding result [5]: no binding
